Target: EDB (+)-fibronectin in murine tumor sections (Mus musculus, UniProt P11276)
Assay: immunostaining of cells or tissue

EDB (+)-fibronectin in murine tumor sections, sequence (P11276 33-2477): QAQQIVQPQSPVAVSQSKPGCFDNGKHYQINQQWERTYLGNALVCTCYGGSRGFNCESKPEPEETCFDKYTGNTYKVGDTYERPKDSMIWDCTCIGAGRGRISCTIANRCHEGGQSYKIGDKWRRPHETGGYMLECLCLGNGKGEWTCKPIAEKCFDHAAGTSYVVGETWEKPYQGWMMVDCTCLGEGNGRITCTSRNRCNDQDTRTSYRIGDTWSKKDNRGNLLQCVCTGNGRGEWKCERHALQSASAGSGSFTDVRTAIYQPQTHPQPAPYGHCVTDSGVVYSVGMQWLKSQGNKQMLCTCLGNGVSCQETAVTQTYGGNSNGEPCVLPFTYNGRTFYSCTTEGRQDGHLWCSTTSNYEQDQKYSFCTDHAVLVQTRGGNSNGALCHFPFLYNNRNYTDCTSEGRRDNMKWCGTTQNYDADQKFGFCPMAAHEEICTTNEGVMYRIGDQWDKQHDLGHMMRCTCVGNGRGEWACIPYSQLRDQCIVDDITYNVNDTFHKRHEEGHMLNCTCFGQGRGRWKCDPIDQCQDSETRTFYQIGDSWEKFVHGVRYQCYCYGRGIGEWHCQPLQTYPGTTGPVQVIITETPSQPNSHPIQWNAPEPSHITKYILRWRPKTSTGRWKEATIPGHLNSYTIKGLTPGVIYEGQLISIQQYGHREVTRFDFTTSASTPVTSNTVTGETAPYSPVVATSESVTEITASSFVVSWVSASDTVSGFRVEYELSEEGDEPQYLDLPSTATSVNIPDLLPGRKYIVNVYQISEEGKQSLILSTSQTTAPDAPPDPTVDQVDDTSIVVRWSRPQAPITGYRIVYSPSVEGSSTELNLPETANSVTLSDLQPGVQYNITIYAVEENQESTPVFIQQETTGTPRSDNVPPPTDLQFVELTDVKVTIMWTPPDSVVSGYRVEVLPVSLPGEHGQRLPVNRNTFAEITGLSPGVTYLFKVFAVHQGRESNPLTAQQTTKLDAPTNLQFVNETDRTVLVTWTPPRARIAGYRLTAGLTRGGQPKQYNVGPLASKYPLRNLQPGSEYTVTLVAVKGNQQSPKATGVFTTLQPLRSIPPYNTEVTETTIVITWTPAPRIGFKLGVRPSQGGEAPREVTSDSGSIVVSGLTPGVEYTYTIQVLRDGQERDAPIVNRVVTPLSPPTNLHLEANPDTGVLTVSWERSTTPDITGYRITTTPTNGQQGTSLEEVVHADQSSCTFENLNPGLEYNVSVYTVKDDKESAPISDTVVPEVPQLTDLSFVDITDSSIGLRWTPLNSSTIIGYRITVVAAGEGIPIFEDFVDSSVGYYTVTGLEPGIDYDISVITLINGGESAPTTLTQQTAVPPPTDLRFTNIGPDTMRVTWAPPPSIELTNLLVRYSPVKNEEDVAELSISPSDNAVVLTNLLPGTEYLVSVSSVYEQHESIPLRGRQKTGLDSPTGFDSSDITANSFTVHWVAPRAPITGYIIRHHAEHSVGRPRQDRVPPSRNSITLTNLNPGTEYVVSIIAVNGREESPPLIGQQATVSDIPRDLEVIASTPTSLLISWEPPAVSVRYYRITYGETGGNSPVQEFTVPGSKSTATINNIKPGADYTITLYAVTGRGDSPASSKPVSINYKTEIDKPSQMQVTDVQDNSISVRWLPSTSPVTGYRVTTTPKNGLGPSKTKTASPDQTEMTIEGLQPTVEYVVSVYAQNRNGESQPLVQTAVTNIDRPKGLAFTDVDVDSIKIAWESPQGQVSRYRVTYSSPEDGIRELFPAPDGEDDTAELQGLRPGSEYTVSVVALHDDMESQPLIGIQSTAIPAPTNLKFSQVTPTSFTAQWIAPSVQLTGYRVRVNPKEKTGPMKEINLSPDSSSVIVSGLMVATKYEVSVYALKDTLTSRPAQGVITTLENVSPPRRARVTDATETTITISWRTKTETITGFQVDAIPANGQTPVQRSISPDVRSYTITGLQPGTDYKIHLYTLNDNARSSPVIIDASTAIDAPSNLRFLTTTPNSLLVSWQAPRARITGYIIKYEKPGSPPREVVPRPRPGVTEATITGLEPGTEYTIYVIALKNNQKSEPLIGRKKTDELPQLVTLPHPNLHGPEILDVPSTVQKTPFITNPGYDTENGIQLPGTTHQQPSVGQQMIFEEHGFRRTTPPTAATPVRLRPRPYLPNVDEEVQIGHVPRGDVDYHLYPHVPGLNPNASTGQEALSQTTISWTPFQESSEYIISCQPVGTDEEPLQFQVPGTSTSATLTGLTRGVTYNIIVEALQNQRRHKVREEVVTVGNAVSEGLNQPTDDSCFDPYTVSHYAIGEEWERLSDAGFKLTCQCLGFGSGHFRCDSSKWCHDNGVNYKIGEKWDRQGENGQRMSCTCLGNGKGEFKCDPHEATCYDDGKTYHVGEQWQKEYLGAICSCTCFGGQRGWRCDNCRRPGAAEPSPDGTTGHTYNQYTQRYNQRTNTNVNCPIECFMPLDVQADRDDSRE

binding result: binds
B1: FITC-labeled L19 IgG1 (antibody, V domains shown)
VH: EVQLLESGGGLVQPGGSLRLSCAASGFTFSSFSMSWVRQAPGKGLEWVSSISGSSGTTYYADSVKGRFTISRDNSKNTLYLQMNSLRAEDTAVYYCAKPFPYFDYWGQGTLVTVSS
VL: EIVLTQSPGTLSLSPGERATLSCRASQSVSSSFLAWYQQKPGQAPRLLIYYASSRATGIPDRFSGSGSGTDFTLTISRLEPEDFAVYYCQQTGRIPPTFGQGTKVEIK

— paper doi:10.1101/684100 (bioRxiv, 2019)
